Test results reported in patent US20240092935A1.

Biological target: Asialo-BSM (desialylated bovine submaxillary mucin) (bovine)
Test: fluorescence binding assay on an Asialo-BSM-coated 96-well plate (0.5 µg/well), biotinylated VVA detected with Alexa Fluor 488 streptavidin, fit with GraphPad Prism

- Kd: 0.0533 µM
Substance: Vicia villosa agglutinin (VVA), biotinylated (from UniProt P56625 1-185)
